Data reported in patent publication US20250332265A1, “PSMA TARGETED CONJUGATE COMPOUNDS AND USES THEREOF” (priority 2021, published 2025).

What was measured:
PC3pip tumors = assay: In vivo antitumor efficacy studies with PDT; set-up: species or system mice
Protocol: The effect of PSMA-1-MMAE-IR700 were tested in mice bearing PC3pip tumors. Animals with tumor size at about 100 mm3 were used for the study (tumor volume=Length×width2/2). Animals were divided into 7 groups: (1) mice receiving PBS; (2) mice receiving 100 nmol/kg PSMA-1-MMAE-IR700 with PDT; (3) mice receiving equal doses of PSMA-1-MMAE-IR700 to group 2, but not receiving PDT; (4) Mice receiving equal doses of PSMA-1-IR700 to group 2 with PDT treatment; (5) Mice receiving equal doses of PSMA-1-IR700 to group 2 without PDT; (6) mice receiving equal doses of PSMA-1-IR700 to group 2+free MMAE with PDT (MMAE normalized to that delivered by PSMA-1-MMAE-IR700); and (7) mice receiving equal doses of PSMA-1-IR700 to group 2+free MMAE without PDT. Each group had 5 mice. Animals received drugs through tail vein injection on day 0, 4, 8, 12 and 16 and treated with 50 J/cm2 of 690 nm light at 1 h post-injection on these injection days. The dose and schedule was based on previous PSMA-1-VcMMAE work and were not optimized. Animals were imaged before and after PDT. Mice were monitored every other day for 90 days. Animals were euthanized when tumors became too large (diameter >20 mm) or animals were moribund. Data were reported as body weight over time, tumor size over time and Kaplan-Meier survival plots.

[1] = Stability in mouse plasma; format: in vitro ADME
Description: To synthesize PSMA-1-MMAE-IR700 (FIG. 6A), we used a self-immolative cathespsin cleavable Vc linker to conjugate MMAE to PSMA-1-Cys-C6-Lys. IR700 was conjugated to the PSMA-1 ligand through reaction of the Lys amine (—NH2) with NHS ester as no IR700 release is required for light activation. […] Degradation of PSMA-1-MMAE-IR700 led to release of free MMAE.

[2] = Pharmacokinetic studies based on fluorescence; format: in vivo, mice; conditions: after 4 h post injection almost all drug was cleared
Description: Prostate cancer is highly heterogeneous, which will affect treatment response, drug resistance and clinical outcome. The use of combination therapies with different mechanisms of action will offer potential advantages over a single therapy and it can be an effective way to deal with the ‘heterogeneity’ of cancer cells. […] The use of anticancer drugs is therefore limited by unwanted side effects. To overcome these problems, we have developed a multifunctional molecule named PSMA-1-MMAE-IR700 that combines chemotherapy, PDT, and imaging in a single molecule that is targeted to PSMA. PSMA is over expressed almost exclusively on prostate cancer (FIG. 6A). MMAE was selected as the chemotherapeutic drug because of its high potency, its wide use in antibody drug conjugates, its synergy with PDT and the fact that we have successfully targeted it to PSMA for the treatment of prostate cancer with a greater therapeutic index when compared to a PSMA-targeted antibody drug conjugate using MMAE. IR700 was selected as the photosensitizer due to its good water-solubility, its high fluorescence quantum yield and singlet oxygen yield, its long wavelength absorption (690 nm), and the fact that a cetuximab-IR700 conjugate (RM-1929) has been approved in Japan for local regional treatment of head and neck cancer. […] The fluorescence from IR700 allowed visualization of uptake studies of PSMA-1-MMAE-IR700. […]

PC3pip and PC3flu tumors = assay: In vivo fluorescence imaging studies, heterotopic tumors; set-up: species or system mice
Protocol: Animal experiments were approved by the animal care and use committee at Case Western Reserve University (IACUC #150033). Six to eight-week-old male Balb/c athymic nude mice (Jackson Laboratory, Bar Harbor, ME) were implanted subcutaneously with 1×10^6 of PC3pip (right flank) and PC3flu (left flank) cells in 100 μl of matrigel. Animals were ready to use when tumor diameter reached 10 mm, about two weeks. Animals received 100 nmol/kg of PSMA-1-MMAE-IR700 through tail vein injection and were imaged at different time points by Maestro In vivo Image System (Perkin Elmer, Waltham, MI) using the yellow filter set (excitation 575-605 nm, emission 645 nm longpass). During imaging, mice were anesthetized by isoflurane. At 48 h post injection, mice were sacrificed and tissues such as heart, lung, liver, kidneys, stomach, tumors were harvested for ex vivo imaging. Multispectral images were unmixed into their component spectra and average fluorescence signals were quantified by creating regions of interest. Experiments were performed in 5 mice.

[3] = tested on: PSMA-negative PC3flu cells; assay: In vitro uptake studies, Example 2, PC3flu; format: cell-based, human; conditions: 50 nM
Protocol: Enzymatic cleavage study of PSMA-1-MMAE-IR700 was performed as previously described. PSMA-1-MMAE-IR700 was incubated with activated human liver cathespin (Anthens Research and Technology, Anthens, GA) at 37° C. At different incubation time, 40 μL of the solution was placed into tubes loaded with 1 μL of 1 mM E64 protease inhibitor. The mixture was vortexed and then stored at −80° C. for future HPLC analysis. Studies were performed in triplicate. In vitro cellular uptake studies cells were plated on coverslips at about 60-70% confluency. Twenty-four hours later, cells were incubated with 50 nM of PSMA-1-MMAE-IR700. After incubation for various times (15 min, 30 min, 1 h and 4 h), cells were washed twice with cold RPMI 1640, fixed with 4% paraformaldehyde and counterstained with 4′,6-diamidino-2-phenylindole (DAPI). Images were taken using a Leica DM4000B fluorescence microscope (Leica Biosystems, Buffalo Gove, IL) at 40×. Blocking experiments were performed by co-incubation of cells with 50 nM of PSMA-1-MMAE-IR700 and 100× of PSMA-1 ligand. Studies were performed in triplicate.

[4] = 4 h post injection, 100 nmol/kg
[5] = 48 h post injection, 100 nmol/kg

## CC[C@H](C)[C@@H]([C@@H](CC(=O)N1CCC[C@H]1[C@H](OC)[C@@H](C)C(=O)N[C@H](C)[C@@H](O)c1ccccc1)OC)N(C)C(=O)[C@@H](NC(=O)[C@H](C(C)C)N(C)C(=O)OCc1ccc(NC(=O)[C@H](CCCNC(N)=O)NC(=O)[C@@H](NC(=O)CCCCCN2C(=O)CC(SC[C@H](NC(=O)[C@H](CCC(=O)O)NC(=O)[C@H](CCC(=O)O)NC(=O)[C@H](CCC(=O)O)NC(=O)CCCCCNC(=O)[C@H]3CC[C@H](CNC(=O)CC[C@H](NC(=O)N[C@@H](CCC(=O)O)C(=O)O)C(=O)O)CC3)C(=O)NCCCCCC(=O)N[C@@H](CCCCNC(=O)CCCCCNC(=O)OCCCOc3cccc4c5n6c(c34)=NC3=NC(=Nc4c7ccccc7c(n4[Si]6(O[Si](C)(C)CCC[N+](CCCS(=O)(=O)[O-])(CCCS(=O)(=O)O)CCCS(=O)(=O)O)O[Si](C)(C)CCC[N+](CCCS(=O)(=O)[O-])(CCCS(=O)(=O)O)CCCS(=O)(=O)O)N=C4N=C(N=5)c5ccccc54)c4ccccc43)C(N)=O)C2=O)C(C)C)cc1)C(C)C (stereo partly shown) [PSMA-1-MMAE-IR700]
PC3pip tumors; 100 nmol/kg every 4 days, 5 doses, 50 J/cm^2 of 690 nm light
  tumor growth, with light irradiation (PDT): greatest tumor growth inhibition
PC3pip tumors; 100 nmol/kg every 4 days, 5 doses, no light
  tumor growth, no light treatment: significantly inhibited tumor growth
PC3pip tumors; 100 nmol/kg with light irradiation, 90-day period
  cure rate for tumors: 60%
PC3pip tumors; liver, lung, heart, spleen, kidney, salivary gland and prostate
  histological analysis of major organs on day 30: did not cause systemic toxicity
PC3pip tumors; treatment groups
  body weight loss: did not cause any body weight loss
[1]
  half-life: 17.2 ± 2.8 h
[2]
  clearance from the blood: cleared quickly from the blood
PC3pip and PC3flu tumors; 100 nmol/kg i.v.
  time to reach peak uptake in PC3pip tumors: 1 h
PC3pip and PC3flu tumors; 4 h post injection
  fluorescence signal PC3pip versus PC3flu tumor: 3.8 fold
PC3pip and PC3flu tumors; [4]
  fluorescence signal in PC3flu tumor: 5.2±1.5 counts
  fluorescence signal in PC3pip tumor: 19.6±4.4 counts
PC3pip and PC3flu tumors; 48 h post injection
  fluorescence signal PC3pip versus PC3flu tumor: 2.9 fold
PC3pip and PC3flu tumors; [5]
  fluorescence signal in PC3flu tumors: 3.3±1.3 counts
  fluorescence signal in PC3pip tumors: 9.6±2.1 counts
PC3pip and PC3flu tumors; ex vivo, 48 h post injection
  fluorescent signal in PC3pip tumor versus kidneys, liver and other organs: more than 3 fold
[3]
  fluorescence signal (uptake) in PC3flu cells: no fluorescence signal was observed
